Test results published in patent US20230272011A1 (AVACTA LIFE SCIENCES, published 2023).

Target: T1, cynomolgus serum albumin (cynomolgus)
T1 construct: also called CSA; cyno serum albumin
Assay: binding ELISA on coated albumin, pH 6.0, panel 'CSA Binding at pH 6.0'
Protocol: Briefly, ELISA was performed as follow:
Human (Sigma-Aldrich); Cynomolgus and Mouse (Abcam); Equine (Abcam); Canine (Abcam); Mouse (Sigma-Aldrich); Rabbit (Sigma-Aldrich); Porcine (Sigma-Aldrich);, and Rat (Sigma-Aldrich) serum albumin were coated overnight on 96 well plates (Corning Costar) at 1 μg/ml in PBS at the appropriate pH (pH 6.0 or 7.4). Plates were saturated using 5% Casein (Sigma-Aldrich) buffer in PBS. […] Plates were then washed and AFFIMER® proteins were detected using a biotinylated polyclonal antibody anti-Cystatin (R&D System) for 90 minutes. After washing, streptavidin-HRP (Thermo Fisher Scientific) was added and incubated for 30 minutes.

T1 sequence (A2V9Z4 25-608): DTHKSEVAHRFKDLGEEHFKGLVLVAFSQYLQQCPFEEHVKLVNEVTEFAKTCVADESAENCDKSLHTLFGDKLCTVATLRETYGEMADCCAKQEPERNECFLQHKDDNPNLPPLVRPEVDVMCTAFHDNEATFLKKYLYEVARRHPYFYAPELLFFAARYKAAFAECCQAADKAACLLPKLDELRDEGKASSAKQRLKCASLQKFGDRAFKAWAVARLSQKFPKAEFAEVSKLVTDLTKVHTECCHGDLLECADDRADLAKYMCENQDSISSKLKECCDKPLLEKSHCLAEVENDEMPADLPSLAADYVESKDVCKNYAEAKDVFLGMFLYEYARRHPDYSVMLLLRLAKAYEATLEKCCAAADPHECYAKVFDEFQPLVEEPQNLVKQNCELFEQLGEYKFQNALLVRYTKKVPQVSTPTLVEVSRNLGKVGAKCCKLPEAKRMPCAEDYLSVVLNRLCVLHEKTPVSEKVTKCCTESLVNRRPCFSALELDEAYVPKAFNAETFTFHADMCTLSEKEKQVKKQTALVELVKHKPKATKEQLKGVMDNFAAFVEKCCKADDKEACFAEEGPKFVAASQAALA

B1: HSA-41 (designed binder)
chain: MIPRGLSEAKPATPEIQEIVDKVKPQLEEKTNETYGKLEAVQYKTQVLANFFQRRWPGSTNYYIKVRAGDNKYMHLKVFNGPWKFRNTDRGADRVLTGYQVDKNKDDELTGFHHHHHH
notes: also called HSA-41 parent; HSA-41 AH parent
  EC50 (read off the curve): ~3 nM
